assay: soluble on expression in E. coli; label from the status in PepcDB or PDB records

Sequence	soluble on expression in E. coli
MYMAQPGHIDHIKQINAGRVYKLIDQKGPISRIDLSKESELAPASITKITRELIDAHLIHETTVQEAISRGRPAVGLQTNNLGWQFLSMRLGRGYLTIALHELGGEVLIDTKIDIHEIDQDDVLARLLFEIEEFFQTYAAQLDRVTSIAITLPGLVNSEQGIVLQMPHYNVKNLALGPEIYKATGLPVFVANDTRAWALAEKLFGHSQDVDNSVLISIHHGLGAGIVLDGRVLQGRHGNIGELGHIQIDPQGKRCHCGNYGCLETVASSQAIRDQVTARIQAGEPSCLATVEEISIEDICAAAADGDPLAVDVIQQLGRYLGAAIAIVINLFNPEKILIGGVINQAKSILYPSIEQCIREQSLPVYHQDLKLVESRFYKQATMPGAALIKQALYDGLLLMKVVEG	soluble
MEQLLFRHNRPGRCVTFAEYRAEGGFAALEKALAGMSPNDVQQVVIDSGLRGRGGAGFPTGKKWSFVPRDIPGPRYLICNCDEMEPGTYKDRVLLEANPYSLVEGMTLAAYAIGVAHAFIFIRRGYEEAAENCRRAIAEAKAAGLLGENILGTGFSLELDVHQSAGRYICGEETALMNALEGKRANPRSKPPFPAVKGLWGRPTVVNNVETLANIPAIVANGAAWFKGLARIPEAAGMKLFCVSGHVNNTACFELPLGMTLGEIIDGPCGGMLPGREFKACIPGGASTPFFTKEHWHVPMDFDTVAKAGSRLGTGGIVVFDRDTCMVAATLNLIVFYARESCGWCTPCREGLPFVQDVLARIEAGEGREEHIGILREHIQYLNYSFCPLAPGAMGPVEGLLRLFEGEIREHIVLGRCPFGGKLEHHHHHH	not soluble
MAHHHHHHMRSLTRIASAGVRLDNIDLIGCVGATAAAKLPYTWQVGKSFSDNSASAAAAGGRTTSKITGSVYAVHQQHLFLPLTIEIGFGVQMKHDKDEEYVSRLVGGVLVRVNSSGTYGMLLDSSRFIMAGSAEMIILSKGQAPILRTSR	not soluble
MGSDKIHHHHHHMSSNRCDDCHPAGIDDANRQPRLETAAKGGGEPAPSTANLPDAAHLPGGRIRIGISSCLLGNPVRFDGGHKFDPWVVNVLGAYLDFVPVCPEVECGMGIPREALRLVGDPSAPRLVTVKHGEDWTDRMRAWAERRVAELEGEGLCGYIFKRASPSSGMERVKVYPEFDPATGKSGGVPVQKGVGMFARAFIERFPLLPVEEEGRLNDPDLRENFIERLFVMRRWRQLLDDGLDTGGLVAFHTRHKLLMLAHSPQHYRTMGKLVAQAATYPRDELREAYQRLLMEGLRLRATPAKHVNVLQHIMGYFRKQLTPDEKQEMLEQIDLYRRALVPLVVPVTLLNHYVRKYGEKYLAGQFYLNPHPVELKLRNHV	not soluble
MFSIFMRIPDTAQVDAVFSGAYASIEQGLCYDEVNDWENTLAMYEKGLNLIVEGEKMKNARKSEMWKMLQESKSSVQHRINVLKKEGPKQPTPKKIKEAEESVENEKEAIRMQLDSFGSQEADLIYFLPEGVQLFTIDGEKTTAPTAPTSLQILRFPQPTDGGASSDTLAFMQVGPWAYPLMGAKTPVLRNEFGAYLVANPTPENPNMTVAILLSSDIERRLIEELHIVLREFTDFKEQAEPSTELSKEEKNRISTTISNFLIKGGQKIAWGVETTTVRVISRVEDNGEQYRTTLIATDKPMQVSPVIKGSVVYMHKGTKTVAKCTRYLLDKIGDMGVSMGKKLADSAQRRFGDGKSGGLVSGTIEILGGGITGVATVWMSLEDGSRHLCRSIANQTVQNVKLKYGDDASDTTHHALFAAGHGTLAAAQLWDLGPRSVAGRMARKAGIQMVSDLHHSRKGSRLDQEVPALELKKAV	not soluble
MAHHHHHHMTTLTHSRPRPLHLPLSPPHTRKNDGAAPAPAHTHPSHFLSVAITVTHTDFVTGTIMKSFFSNITSKLKTRRKPLAPCDCSDFIEAAPAQPSLTHLRGVVAARHFHGAPPPASDVENARRDFVVRSTVFDLQHRCGAGGRCTCAGAPACRFPQCFTMRPVTKGAEVLAERQVYEVEDAPTPEIRALVALAAEEKLEEVVKGIQHTVDAHLKAAARGRGLEARFIIDGSDGHEFTPATPKTGTGSIHAGANPLREDEDLREEITSLYLWRAALLVNLRRDEQAVSSLLNLAFAVEQKDRTRLYGAAAAWAVLNDMEIIYYRSLVKSCKPFDQAVHFATERPLLLARVFEATRGDDYHTDYCTHVVFSKEVTATVTRAQTAQMHGDFTEDPMRSLCLPLTMPYYRFRVDEEFWKRFYALLCMPPVPPPTQEEAKAQAIDPAAELGLTPNYILDAVGRSMMLHHLVTFADVRDKEIDTGVVVDRVKEMKLLDLQPHPSDYTPVLTTSEMHVAVTRMKELLVVVRSFEAKEQERLSGAAAAQRLQRAQSGNDAANPSAAPPAPSPIEK	not soluble
MAHHHHHHMKQIDQLIIEEADENTIIPYYLSNLLTNASNPVVFMDVNLGNHFLGKFKFELFQNIVPKTSENFRQFCTGEYKVNNLPVGYKNTTFHRVIKEFMIQGGDFVNYNGSGSLSIYGEIFEDENFDVKHDQEGLLSMANSGPNTNGCQFFITTKKCEWLDGKNVVFGRIIDSDSLILLKKIENVSVTPYIYKPKIPINIVECGEL	not soluble
MKYQVSLLAVKDIEVSKKFYKELFEQEIELDLGKNVTFKGGFAIQEDFAWLTGINPDTIIQKSNNMELYFEVDDFDEFIEKLNYYKDVEFVHKPLKHEWQQRVVRIYDPDKHIIEIGESMEVIARRYLSEGYSVEETSKIIQHPIEFVKQCENSKELEHHHHHH	soluble
MIPVTRMAVGKGTVSTRIKGLRGRRPSSFADILRPVVFWNITRACNLKCIHCYISAGPHPLPGELSTEEALGVARQLVEHGVPLVTLSGGEPLVRRDFWAIAKALSGHDTPKLALSSNGTLITRETAARLRRLGFSYVGISLDSVDPGVHDKFRGAPGAFKAAIRGARNALEEGLDVGFRLTITKYNLDDAPRIIRLASDMGVPRVAIYVVDLLGRATPDLAPSPEDLRRAIDAILEESVRHQDRVEVLLVRANFAGVYLADRLAKTRDEFLQLLSLVGSHGDCGRKSVSIYPDGTVRPCQFLEEVVIGDLRRQRLGEILSADNPLLKPFIAVDTMLRGPKCGGCPFKRVCGGGSRMRALKTTGEFWGDDPLCFIDPWSIARRWGYSAG	not soluble
MNSALYANYLNILKQELVPALGCTEPIAIAYAAAKAHQVLGEFPDSVNMSLSGNIIKNVKGVTVPNSGGLKGIDVAAILGIVGGNADKALEVLSEITEDDIARTRELVKQHVCSCSLVEGVDNLYITAKVIKGDHFASVTIEHQHTNITRIEKDGEVILDNPYQAECKTVIDKSKLTVKDILDFADQVRIEDVQPIIDRQIKLNSAIAQEGLDNNYGAQIGKTLMHVWGKSVTTRACARAAAGSDARMGGCSMPVVINSGSGNQGMTVSLPVIVFADEWEVSHEKLCRSLVVSNLIAIHQKYYIGSLSAYCGAVSAACGAGAGITYMYGGTYQQVSLTIINTLGNVGGIVCDGAKPSCAAKIASSVDAALMAFQLSIQNKSFLPGEGIIKDDIEETIKSMGYIGRVGMRSTDTEILNVMIDRADINQGC	not soluble
MSLFYYIVDDDEVFRSMLSQIIEDGDLGEVIGESEDGAFVEAEQLNYKKVDILFIDLLMPMRDGIETVRHIASSFTGKIIMISQVESKQLIGEAYTLGVEYYITKPLNKIEVVSVVRKVIERIRLERSIYDIQKSLNNVFQWEKPQMRSETVQEEKKISDSGRFLLAELGIAGENGSKDLLSMLEYLYGQEKAQTFEFGFPALKDIFHQITLKKLGEIASDADIEKEKKASEQRVRRAIYQSLNHLASLGLTDFSNPKFESYAPKFFDFTVVRKRMTEMTKDGVATSGHIRINTKKFIQVLYFEAKRLMEIEEGHHHHHH	soluble
MPNDIENGTVIPPRRGVVWKIEEKELQGFAIPFPGADLSVMVRSQYYDATVRKSRPVHLSSYFQLDTRFKTYRLILWGAITRAFALASFTRRILLKYPDQCSFRMFKKSGPSAQQIAEASFTYWFFGYGYKETIPLDQQHERKVDRKVVATCKGPDLAYMAASGCVLSAALALVKDKNNLPKEGGVYTPAAAFGDSKIYDYLATFGINFHLESEYDL	not soluble
MRPDAVMIFAAGFGTRMGALTATRPKPMIEVAGRPLIDHALALAEAAGISRIVANTHYLPESLTAHLAGRALVSHEEEILETGGGLCRALPLLGEGPVYTLNSDAVWTGENPLDELAAGWREGMEALLLLAPSGCAPGDFTMDAAGRLARARGAPGYTYLGAQILRTDRLAGVAEAKFSLNLVWDAMIAAGTAHGLIHRGGWCDVGRPEGIAAAEAMLANVLEHHHHHH	not soluble
MQLRKKLHEAIVDGEEDDCPKRKIKKLDIQVDAATKVFSNQHILHDIIEYTVDGDKSILDNLRLRLVSRSFNNVVLSKVRAEFKMVQVCPYQQPEGADEKEEPEYDESNDIEDRSFMINDRRTWFSQVPRFFEFLNSVARIRVRDLLFSGFTSPDQRIHECILYSLLDGNWYSLNSYKGADELCNGCAVCSGNCFPLLAEIALHCVTMVGSREEAFSRLTKMITQDVNCDQLDLVFSDRCMWSKGTLAHPREVIDRIVKAWRVKSINIRFMTEYSSIDHEMWSNKRIFTEMRFDEMFVTDHNIIRPRHERDHFERVEVDMQAGDEIATCFAESMGMFEQSGMSATAFQNVCANVKRIFPTQDMYLILPTELAHVASVEFDGFCKALLEFAWKDERTARHSRLFFRLYTFGITEEQVLRQTENQFKINCRPVAAMLSDSSVRRSFLQWLPGSTSTFDRSLLSFTDVWNNCVLHLEVCIEADC	not soluble
SQEIVAGELERCFLAMPESVLPIVTMEERNDLCRRAGHLSGFTHTASLESSLGGTVTFLLNRNFIRIQTSTVGEVFMRILPFSDSSSVICVVTTVLHPVADSRIDFYTTEWKPLKTDRFWQQPRIEDFFLPHTDRQSYAYQAIYASLTPSYMQVSLSEESDTLSIRQTVTETLAEEEKPLAAIFLSPEPLVYRWQSGRFVRQVR	soluble
MSNSTEPALAIITVTYSPGKHLGAFLSSVKEATAQPTYVVLADNGSVDGVPEAAAQADPSVEFFPTGGNIGYGSAINAAVRKLAPLRESGKINAEFFVLSNPDVVFEPGSIDAMVQCASRHPQAADIGPYIRQSDGSAYPSARQVPTIKNGVGHALFSSVWPSNPWSRAYRDNRDMTTERTAGWLSGSCLLVRWDAFEQIGGFDERYFMYMEDVDLGDRFGRAGFDNVFCPDAVITHAVGHAAGKHPEKMLPAHHDSAYRFQADRHPGLRYLPLRVLLRVGLKLRAVVAVAAAKFKLEHHHHHH	soluble
MGSDKIHHHHHHMKVIIEADGGSRGNPGIAGSGTLIYNADRSQVLKEYSYVVGKATNNVAEYHGLLNGLRGAAELGATEVSVRMDSKLVVEQMSGRWKIKHPDMKELALECKKVASSIGSVSYEWIPRSENSHADALANKAMDALAEGAAVGFLELEEPAAKTDSEEKVVETATSPAVWNGATTQATRFVLLRHGQTAMSAARQYSGRSNPELTSVGLEQARRAAAFIGRRGGIDAIVASPLQRCQQTAHEVSEQLGGMPVRTIDGLIEMDFGQWDGLSFSQAHEADPELHSAWLDDSRTAPPGGESLQQVHRRVKKVREELERKYAGKTIVVVSHVTPIKSILRQALDASASMFHRMHLDLASISVAEFYSDGPTCVRSVNDTHYLYG	not soluble
MSLQQYEILLDSGTNELEIVKFGVGENAFGINVMKVREIIQPVEVTSVPHSHQHVEGMIKLRGEILPVISLFSFFGVEPEGSKDEKYIVTEFNKRKIVFHVGSVSQIHRVSWEAIEKPTSLNQGMERHLTGIIKLEDLMIFLPDYEKIIYDIESDSGVDTYNMHTEGFDERRTDKKLIIVEDSPLLMRLLQDELKEAGYNNIASFENGKEAYEYIMNLAENETDLSKQIDMIITDIEMPKMDGHRLTKLLKENPKSSDVPVMIFSSLITDDLRHRGEVVGADEQISKPEISDLIKKVDTYVIEGHHHHHH	soluble
